Changes are numbered by the printed parent chain.
B1: scFv-E040-msFcγ2c (Fc fusion)
chain: DADPAQAAELVMTQSPDSLAVSLGERATINCKSSQSVLYSSNNENYLAWYQQKPGQPPKLLIYWASTRESGVPDRFSGSGSGTDFTLTINSVQAEDVAVYYCQQYFMTPITFGQGTRLEIKGGSSRSSSSGGGGSGGGGEVQLLESGGALVQPGRSLRLSCRTSGLNFGDYPINWVRQAPGKGLEWVGFIKSKSYGVTTEFAASVEGRFTISRDDSRGIAYLQMNSLKTEDTAVYYCTSSSGFLYYFDYWGQGTLVTVSSASTKGPSVTSGQAGRKLEPRVPITQNPCPPLKECPPCAAPDLLGGPSVFIFPPKIKDVLMISLSPMVTCVVVDVSEDDPDVQISWFVNNVEVHTAQTQTHREDYNSTLRVVSALPIQHQDWMSGKEFKCKVNNRALPSPIEKTISKPRGPVRAPQVYVLPPPAEEMTKKEFSLTCMITGFLPAEIAVDWTSNGRTEQNYKNTATVLDSDGSYFMYSKLRVQKSTWERGSLFACSVVHEGLHNHLTTKTISRSLGK
B2: scFv-D005-msFcγ2c (Fc fusion)
chain: B1 chain with S40T, E44K, A48G, K59N, L144V
B3: scFv-F052-msFcγ2c (Fc fusion)
chain: B1 chain with L10R, S18A, V37L, E44K, Q52K, D84E, R117K, E140Q, L144Q

Biological target: T1, M2e (SEQ ID NO:48) conjugated to RNAse A (Influenza A virus (consensus of H1, H2 …))
Experiment: not given

| Binder | Kd [nM] |
| --- | --- |
| B1 | 0.013 |
| B2 | 0.004 |
| B3 | 0.006 |

Biological target: T1, M2e (SEQ ID NO:48) conjugated to RNAse A
Experiment: ELISA, apparent affinity, purified scFv-msFcγ2c on immobilised RNAse A-M2e

| Binder | EC50 [nM] |
| --- | --- |
| B1 | 0.0883 |
| B2 | 0.0815 |
| B3 | 0.0506 |

From patent US20110268740A1 (INTERCELL, published 2011)
